In US20260167677A1, “ANTI-ADAM10 ANTIBODIES AND USES IN TREATMENT OF CANCER” (Memorial Sloan Kettering Cancer Center, priority 2022, published 2026):

Tested on: human APP
Experiment: Western blot of APP shedding in U2OS cells transfected with human APP
Assay type: cell-based
Settings: 31 nM to 1 μM
Procedure: U2OS cells transiently transfected with human APP releases the extracellular portion of APP to the media.
The release of sAPPα in the presence of varying concentrations of IHigG/Fab (31 nM to 1 μM) was evaluated using Western blotting. The Western blots were quantitated using the software Image J and glyceraldehyde 3-phosphate dehydrogenase (GAPDH) as loading control. A vector control was included and U20S cells transfected with APP, but untreated, was used to calculate the fold increase in shedding.

B1: 1H5 Fab: Fab fragment of fully human anti-ADAM10 antibody 1H5 (antibody)
heavy: QVQLVESGGGLVKPGGSLRLSCAASGFTFSDYYMSWIRQAPGKGLEWVSYISSSGSTIYYADSVKGRFTISRDNAKNSLYLQMNSLRAEDTAVYYCARDFYDSKIFDYWGQGTLVTVSSASTKGPSVFPLAPSSKSTSGGTAALGCLVKDYFPEPVTVSWNSGALTSGVHTFPAVLQSSGLYSLSSVVTVPSSSLGTQTYICNVNHKPSNTKVDKKVEPKSCDKT
light: DIQMTQSPSSLSASVGDRVTITCRASQSISSYLNWYQQKPGKAPKLLIYAASSLQSGVPSRFSGSGSGTDFTLTISSLQPEDVGVYYCMEGLKTPFTFGPGTKLEIKRTVAAPSVFIFPPSDEQLKSGTASVVCLLNNFYPREAKVQWKVDNALQSGNSQESVTEQDSKDSTYSLSSTLTLSKADYEKHKVYACEVTHQGLSSPVTKSFNRGEC
sAPPα shedding: increase
